{
  "source": "the nanobody polyreactivity screen of Harvey et al. (2022)",
  "assay": "yeast display, Sf9 membrane polyspecificity reagent, FACS + sequencing; frameworks hold sequencing errors",
  "procedure,_shortened": "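In a synthetic yeast display library (Saccharomyces cerevisiae BJ5465), nanobody expression was induced with galactose for 36–48 hours. FACS gates were set low and high (top ~1%) using anti-HA fluorescence for expression and streptavidin fluorescence for binding of the Sf9 membrane reagent. Each polyreactivity label is drawn from the gate of origin.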",
  "data": [
    {"sequence": "QVQLVESGGGLVQAGGSLRLSCAASGSTFHRYAKGSYRQAPGKERELVARIIGSGGSTYYADSVKGRFTISRDNAKNTVYLQMNSLKPEDTAVYYCAADGLYYTYGYDYWGQGTQVTVSS", "values": [
      {"measurement": "polyreactivity (PSR sort gate)", "value": "low polyreactivity"}
    ]},
    {"sequence": "QVQLVESGGGLVQAGGSLRLSCAASGSTFHRYALGWYRQAPGKERELVATITSRGGITYYADSVKGRFTISRDNAKNTVYLQMNSLKPEDTAVYYCYRYDYWGQGTQVTVSS", "values": [
      {"measurement": "polyreactivity (PSR sort gate)", "value": "low polyreactivity"}
    ]},
    {"sequence": "QVQLVESGGGLVQAGGSLRLSCAASGSTFHWYVMGWYRQAPGKERELVAAITWSGGSTYYADSVKGRLTISRDNAKNTVYLQMNSLKPEDTAVYYCNAVFWIWNAGYDYWGQGTQVTVSS", "values": [
      {"measurement": "polyreactivity (PSR sort gate)", "value": "low polyreactivity"}
    ]},
    {"sequence": "QVQLVESGGGLVQAGGSLRLSCAASGSTFHYYAMGWYRQAPGKERELVAAISQSGSGTYYADSVKGRFTISRDNAKNTVYLLMNSLKPEDTAVYYCAKDITGLSRYRRDYWGQGTQVTVSS", "values": [
      {"measurement": "polyreactivity (PSR sort gate)", "value": "low polyreactivity"}
    ]},
    {"sequence": "QVQLVESGGGLVQAGGSLRLSCAASGSTFHYYAMGWYRQAPGKERELVAAISSGGRTNYADSVKGRFTISRDNAKNTVYLQMNSLKPEDTAVYYCAARWSYTKGEFDYWGQGTQGTVSS", "values": [
      {"measurement": "polyreactivity (PSR sort gate)", "value": "high polyreactivity"}
    ]},
    {"sequence": "QVQLVESGGGLVQAGGSLRLSCAASGSTFHYYVMGWYRQAPGKERELDAAIRRSGGTTYYADSVKGRFTISRDNAKNTVYLQMNSLKPEDTAVYYCAAYFFHYHFYQAAYDYWGQGTQVTVSS", "values": [
      {"measurement": "polyreactivity (PSR sort gate)", "value": "low polyreactivity"}
    ]},
    {"sequence": "QVQLVESGGGLVQAGGSLRLSCAASGSTFIANAMGWYRQAPGKEREFVATISRRGGSTYYADSVKGRFTISRDNAKNTVYLQMNSLKPEDTAVYYCAARPLTYIRFRYYYWGQGTQVSVSS", "values": [
      {"measurement": "polyreactivity (PSR sort gate)", "value": "high polyreactivity"}
    ]},
    {"sequence": "QVQLVESGGGLVQAGGSLRLSCAASGSTFIAYTMGWYRQAPGKERELVAAISGTGGTTYADSVKGRFTISRDNAKNTVYLQMNSLKPEDTAVYYCAAQYRYTYWGQGTQVTVSS", "values": [
      {"measurement": "polyreactivity (PSR sort gate)", "value": "low polyreactivity"}
    ]},
    {"sequence": "QVQLVESGGGLVQAGGSLRLSCAASGSTFIDYAMGWYRQAPGKERELVAAITWSGSSTYYADSVKGRFTISRDNAKNTVYLQMNSLKPEDTAVYYCAARYWYQSYHTYGYYSWGQGTQVTVSS", "values": [
      {"measurement": "polyreactivity (PSR sort gate)", "value": "low polyreactivity"}
    ]},
    {"sequence": "QVQLVESGGGLVQAGGSLRLSCAASGSTFIDYAMGWYRQAPGKERELVAGGSTNYADSVKGRFTISRDNAKNTVYLQMNSLKPEYTAVYYCNADALLYPYWGFDYWGQGTQVTVSS", "values": [
      {"measurement": "polyreactivity (PSR sort gate)", "value": "low polyreactivity"}
    ]},
    {"sequence": "QVQLVESGGGLVQAGGSLRLSCAASGSTFIDYDMGWYRQAPGKERELVAAITSSGSTYYADSVKGRFTISRDNAKNTVYLQMNSLKPEDTAVYYCNARVGPELHDYWGQGTQVTVSS", "values": [
      {"measurement": "polyreactivity (PSR sort gate)", "value": "low polyreactivity"}
    ]},
    {"sequence": "QVQLVESGGGLVQAGGSLRLSCAASGSTFIDYGMGWYRQAPGKERELVAAIDLDSGDTYYADSVKGRFTISRENAKNTVYLQMNSLKPEDTAVYYCAAQYWYRYNYWGQGTQVTVSS", "values": [
      {"measurement": "polyreactivity (PSR sort gate)", "value": "low polyreactivity"}
    ]},
    {"sequence": "QVQLVESGGGLVQAGGSLRLSCAASGSTFIENAMGWYRQAPGKERELVAAINRGGTTYYADSVKGRFTISRDNAKNTVYLQMNSLKPEDTAVYYCAADDPSYANRFIHDYWGQGTHVTVSS", "values": [
      {"measurement": "polyreactivity (PSR sort gate)", "value": "low polyreactivity"}
    ]},
    {"sequence": "QVQLVESGGGLVQAGGSLRLSCAASGSTFIGNAMGWYRQAPGKERELVAAISRTGGSTYADSVKGRFTISRDNAKNTVYLQMNSLKPEDTAVYYCAAKYYYIYYYWGQGTQVTVSS", "values": [
      {"measurement": "polyreactivity (PSR sort gate)", "value": "high polyreactivity"}
    ]},
    {"sequence": "QVQLVESGGGLVQAGGSLRLSCAASGSTFIGNAMGWYRQAPGKERELVAAITRSGGSTFYADSVKGRFTISRDNAKNTVYLQMNSLKPEDTAVYYCAARNGAYPALTAGDYWGQGTQVTVSS", "values": [
      {"measurement": "polyreactivity (PSR sort gate)", "value": "high polyreactivity"}
    ]},
    {"sequence": "QVQLVESGGGLVQAGGSLRLSCAASGSTFIGNAMGWYRQAPGKERELVAAITSSGGSTYYADSVKGRFTISRDNAKNTVYLQLNSLKPEDTAVYYCAAKTWARGHYGYQARSNYWGQGTQVTVSS", "values": [
      {"measurement": "polyreactivity (PSR sort gate)", "value": "high polyreactivity"}
    ]},
    {"sequence": "QVQLVESGGGLVQAGGSLRLSCAASGSTFIGYVMGWYRQAPGKERELVAAISWTGSNKYYADSVKGRFTISRDNAKNTVYLQMNSLKPEDTAVYYCNARSFAPYKNYDYWGQGTQVTVSS", "values": [
      {"measurement": "polyreactivity (PSR sort gate)", "value": "low polyreactivity"}
    ]}
  ]
}
